Source: patent publication US20150110774A1, “S100 PROTEIN INHIBITORS FOR TREATING LEUKEMIA” (UNIVERSITE LAVAL, priority 2004, published 2015)

B1: S100A9: recombinant S100 calcium-binding protein, Myeloid Related Protein (MRP) (protein, UniProt P06702 1-114, looked up)
Protein S100-A9: MTCKMSQLERNIETIINTFHQYSVKLGHPDTLNQGEFKELVRKDLQNFLKKENKNEKVIEHIMEDLDTNADKQLSFEEFIMLMARLTWASHEKMHEGDEGPGHHHKPGLGEGTP
B2: S100A8: recombinant S100 calcium-binding protein, Myeloid Related Protein (MRP) (protein, UniProt P05109 1-93, looked up)
Protein S100-A8: MLTELEKALNSIIDVYHKYSLIKGNFHAVYRDDLKKLLETECPQYIRKKGADVWFKELDINTDGAVNFQEFLILVIKMGVAAHKKSHEESHKE
B3: S100A8/A9: heterodimer of S100A8 and S100A9 (protein, UniProt P05109 1-93; P06702 1-114, looked up)
Protein S100-A8: B2 Protein S100-A8
Protein S100-A9: B1 Protein S100-A9

Key:
[1] = system: advanced leukemia; conditions: clinical studies; cited from earlier work
[2] = system: leukocytes; experiment: Leukocyte accumulation in the murine air pouch model; assay type: in vivo, mice; conditions: air pouch exudate; remainder monocytes
Procedure: S100A8, S100A9, and S100A12 induce an inflammatory reaction when injected in the murine air pouch model. In this model, sterile air is injected subcutaneously under the dorsum of mice on days 0 and 3. On day 7, an enclosed environment is formed in which it is possible to inject pro-inflammatory products. Injection of S100A8, S100A9, S100A12, or S100A8/A9 in the air pouch leads to the accumulation within 3 hrs of up to 8×10^6 leukocytes (FIG. 1). Leukocytes recruited consists of neutrophils (80%) and monocytes. The total number of neutrophils circulating in the peripheral blood of a mouse is estimated at 2.5×10^6 cells. […] This is confirmed by i.v. injections of S100 proteins which leads to the release of neutrophils from the bone marrow to the peripheral blood (FIG. 2). […] More importantly, the concentrations at which they exerted these functions are similar to those found in the plasma of patients suffering, for example but not limited to, from AML and CML.
Air pouches were raised in 10 to 12 week-old CD-1 mice. One ml of murine S100A8 ([…], 5 nM) or phosphate buffered saline (PBS) were injected into the air pouches and the migrating leukocytes were harvested by washing with PBS-EDTA 5 mM at various times. Leukocytes in exudates were counted, centrifuged on microscope slides and stained with Wright-Giemsa. Data represent the mean±SEM of at least 7 mice (FIG. 1).

[3] = system: bone marrow cells from AML and CML patients; experiment: AML/CML patient bone marrow cell proliferation (colony assay); assay type: cell-based, human; conditions: FIG. 4
Procedure: PBMC and BM (5×10^4 cells) were incubated at 37° C. in methylcellulose-based media containing 1% methylcellulose in Iscove MDM, 30% foetal bovine serum, 1% BSA, 10^−4 M 2-mercaptoethanol and 2 mM of L-glutamine supplemented (+CSF) or not (−CSF) by 50 ng/mL of rhSCF, 10 ng/mL of rhIL-3, and 10 ng/mL of rhGM-CSF to support optimal growth of CFU-Granulocyte Macrophage (CFU-GM) CFU-Granulocyte (CFU-G) and CFU-Macrophage (CFU-M). Different concentrations of S100A12, S100A8, and/or S100A9 were also added to the cells. After 15 days, colony-forming units were counted.
Bone marrow cells were obtained by aspirates from a CML patient. (A) The cells were cultured for 14 days in Iscove medium supplemented with 15% FCS and 2% methylcellulose, in presence of increasing concentrations of S100A12. (B) The cells were culture for 14 days in presence of 10 pg/ml of S100A8, S100A9, S100A8/A9, or S100A12 in a methylcellulose medium supplemented or not with 50 ng/ml of Stem cell factor, 10 ng/ml of GM-CSF, and 10 ng/ml of IL-3. The results are the number of colonies per 30 mm^2 petri dishes (FIG. 4). As observed in Example III, different S100 proteins have stimulatory activity on bone marrow cells.

[4] = system: bone marrow cells; experiment: Bone marrow cell proliferation (colonies in methylcellulose, 14 days); assay type: cell-based, mice; conditions: mouse bone marrow cells, FIG. 3
Procedure: Bone marrow cells were collected by flushing PBS through incisions made in the femurs of mice, followed by disaggregation. After removing contaminating erythrocytes by hypoosmotic lysis, bone marrow cells were cultured in semi-solid state in Methocult methylcellulose-based media (Stemcell technologies) for 14 days in presence of increasing concentrations of S100A8. At the end of the incubation period, the colonies were numerated. Similar results were obtained with S100A9, S100A8/A9, and S100A12. Results are from one experiment representative of 2 others (FIG. 3). All monomers and heterodimers have shown a growth stimulatory activity on bone marrow cells.

Molecule | activity in patients with advanced leukemia [1] | neutrophils among leukocytes recruited [2] | proliferation of bone marrow cells from AML and CML patients [3] | proliferation of bone marrow cells [4]
Nc1ccn([C@@H]2CO[C@H](CO)O2)c(=O)n1 [β-L-OddC, (−)-β-L-Dioxolane-Cytidine] | significant activity |  |  | 
B1 |  | 80% | proliferation also occurs | increase of proliferation
B2 |  | 80% | proliferation also occurs | increase of proliferation
B3 |  | 80% |  | increase of proliferation
